In paper PMC4938498, “Molecular, Biochemical, and Dietary Regulation Features of α-Amylase in a Carnivorous Crustacean, the Spiny Lobster Panulirus argus” (PLoS ONE, 2016) one finds Km and kcat data, which are given here for 1 protein.

Substrate in the series: O=[N+]([O-])c1ccc(O[C@H]2O[C@H](CO)[C@@H](O[C@H]3O[C@H](CO)[C@@H](O[C@H]4O[C@H](CO)[C@@H](O)[C@H](O)[C@H]4O)[C@H](O)[C@H]3O)[C@H](O)[C@H]2O)c(Cl)c1
Description: purified protein. To be noted: 50 mM MES pH 5.5, 0.3 M NaCl, 25 mM CaCl2, 37°C. The format is biochemical, Panulirus argus.

B1: lobster α-amylase (PaAmy) (Panulirus argus) (protein)
chain: QWDPHVTNGQAIVHLFEWRWSDIASECENFLGPRGYGGVQVSPPNENVVVYQDEKSRPWWERYQPVSYKIATRSGDEASFKDMVNRCNNAGVRIYVDAVINHMSGWWPTGTAATGGSTFDAGAESYPAVPYSAFDFNDANCHTASGTIEDYGDAEQVRNCKLVGLNDLNQGTDYVRGKIRDYLNTLTSWGVAGFRVDATKHMWPGDLKAIFDSLDDLSPHYFDAGSRPFIFQEVIDLGGEPITSSQYVGNGRVTEFKYGKSLGESFNGNNPLKWFSTFGESWGMVDRGNAVVFIDNHDNQRTGGDMILTFRSSKWYKMANAYMLAWPYGFPRVMSSFYWDQWWENGHDKNDWTGPPHDGSYNIVGPTFNPDDSCGNGWICEHRWRQIYNMVQFRNVAHGTDMNDWWDNGSNQISFCRGDRGFIAINNDPWDMKESRQTCLSSGTYCDVISGSKIQGSCTGKTVTVNADGFAYIEILNSEEDGVLAIHRDSKL
notes: native, purified from digestive gland pool; mature enzyme after 21-residue signal peptide (cleavage A21/Q22 predicted); precursor 513 residues; N-glycosylation N429 predicted
Broadly, the Km is the substrate concentration at which the rate is half of its maximum. One may read the kcat as the number of substrate molecules converted per active site and unit of time at saturation. For the protein B1, the Km was 0.36 ± 0.052 mM and the kcat stood at 28.42 ± 1.203 s⁻¹.
